For one assay, the target named is HLA-A1 (HLA-A*0101) (human). Put plainly: assembly assay: HLA stabilisation, TAP-deficient cell lysate, W6/32 IP, IEF gel.
A further assay concerns the target HLA-A3 (HLA-A*0301) (human). Described as above.
In the next assay the target is HLA-A11 (HLA-A*1101) (human). The assay is described as above.
For assay [1], the target named is T1, HLA-A2 (HLA-A*0201) (human).
T1 construct: MHC class I molecule to which the peptide is added in the assembly assay (T2 cells); folded molecules are immunoprecipitated with conformation-dependent antibody
Put plainly: assembly assay: HLA-A2 stabilisation, T2 cells, IP, IEF gel.

A further assay concerns the target HLA-B35 (human). In words: assembly assay: HLA-B35 stabilisation, T2-B35 lysate, W6/32 IP, IEF gel.
Assay [2] concerns the target T1, HLA-A2 (HLA-A*0201). In words: assembly assay: HLA stabilisation, TAP-deficient cell lysate, W6/32 IP, IEF gel.

FEELTLGEF (also called Survivin93-101) [Sur93-101] came in with a C50 with HLA-A1 (HLA-A*0101) of over 100 µM. In the assay with HLA-A1 (HLA-A*0101), FTELTLGEF (Sur93-101 with T at position 2) [Sur93T2] had a C50 of 1 µM. As for FSELTLGEF (Sur93-101 with S at position 2) [Sur93S2], the C50 in the assay with HLA-A1 (HLA-A*0101) was 30 µM.

Turning to FEELTLGEY (Sur93-101 with Y at the C-terminus) [sur93Y9], the binding result with HLA-A1 (HLA-A*0101) is recorded as “no binding (tested: 40, 4, 0.4, 0.04 µM)”.

B1: Sur5K9 (peptide)
peptide: TLPPAWQPK
notes: Sur5-13 with the C-terminal F replaced by K
B1 displayed a C50 in the assay with HLA-A3 (HLA-A*0301) of 2 µM. For the molecule RISTFKNWPK (Sur18-27 with F changed to K at P10) [Sur18K10], in the assay with HLA-A3 (HLA-A*0301), the C50 came to 0.02 µM.

As to RISTFKNWPF (also called Survivin18-27) [Sur 18-27], the binding result in the assay with HLA-A3 (HLA-A*0301) is listed as “no binding (tested: 100, 10, 1, 0.1, 0.01 µM)”; with HLA-A11 (HLA-A*1101) it was “no binding (tested: 40, 4, 0.4, 0.04 µM)”.

In the assay with HLA-A2 (HLA-A*0201) [1], LTLGEFLKL (also called Sur96-104) [Sur1 (Survivin96-104)] displayed a C50 of over 100 µM.

B2: Sur1M2 (peptide)
peptide: LMLGEFLKL
notes: Analogue of survivin96-104 (Sur1) with T at position 2 replaced by M; also called modified survivin96-104
For B2, the C50 with HLA-A2 (HLA-A*0201) [1] is 1 µM.

B3: Sur1L2 (peptide)
peptide: LLLGEFLKL
notes: Analogue of survivin96-104 (Sur1) with T at position 2 replaced by L
Take B3: the C50 with HLA-A2 (HLA-A*0201) [1] is 1 µM. In the assay with HLA-A2 (HLA-A*0201) [1], ELTLGEFLKL (also called Sur95-104) [Sur9 (Survivin95-104)] showed a C50 of 10 µM.

B4: Sur54L2 (peptide)
peptide: LLQCFFCFK
notes: Sur54-62 with A at position 2 replaced by L
B4: the C50 with HLA-A3 (HLA-A*0301) is 1 µM. Turning to ENEPDLAQCF [Sur49-58], the binding result in the assay with HLA-A1 (HLA-A*0101) was “no binding (tested: 40, 4, 0.4, 0.04 µM)”.

Take ENEPDLAQCY (Sur49-58 with Y at the C-terminus) [sur49Y9]: the binding result in the assay with HLA-A1 (HLA-A*0101) is on record as “no binding (tested: 40, 4, 0.4, 0.04 µM)”. Consider KIAKETNNK [Sur 112-120], for which the C50 with HLA-A3 (HLA-A*0301) stood at 2 µM; with HLA-A11 (HLA-A*1101), 1 µM. Regarding LPPAWQPFL [Sur6-14 (Survivin6-14)], the C50 with HLA-B35 is over 100 µM. Take KVRRAIEQL [Sur3 (Survivin130-138)]: the C50 in the assay with HLA-A2 (HLA-A*0201) [1] is over 100 µM. In the case of DLAQCFFCFK (also called Survivin53-62) [Sur 53-62], the figures for the C50 with HLA-A3 (HLA-A*0301) and with HLA-A11 (HLA-A*1101) were 100 µM and 5 µM, respectively. In the case of DLAQCFFCF [Sur 53-61], the binding result in the assay with HLA-A3 (HLA-A*0301) was “no binding (tested: 100, 10, 1, 0.1, 0.01 µM)”; with HLA-A11 (HLA-A*1101), “no binding (tested: 40, 4, 0.4, 0.04 µM)”.

B5: Sur53K9 (peptide)
peptide: DLAQCFFCK
notes: Sur53-61 with the C-terminal F replaced by K
As for B5, the binding result with HLA-A3 (HLA-A*0301) is listed as “no binding (tested: 100, 10, 1, 0.1, 0.01 µM)”.

B6: Sur113L2 (peptide)
peptide: ILKETNNKKK
notes: Sur113-122 with A at position 2 replaced by L
The molecule B6 had a C50 in the assay with HLA-A3 (HLA-A*0301) of over 100 µM.

As to IAKETNNKKK [Sur 113-122], the binding result is given as “no binding (tested: 100, 10, 1, 0.1, 0.01 µM)” in the assay with HLA-A3 (HLA-A*0301) and “no binding (tested: 40, 4, 0.4, 0.04 µM)” with HLA-A11 (HLA-A*1101). As to ELTLGEFLK [Sur 95-103], the C50 with HLA-A3 (HLA-A*0301) is over 100 µM. The binding result in the assay with HLA-A11 (HLA-A*1101) is “no binding (tested: 40, 4, 0.4, 0.04 µM)”.

On to SVKKQFEELTL [Sur88-98], for which the binding result with HLA-A2 (HLA-A*0201) [2] was “no binding (tested: 100, 10, 1, 0.1, 0.01 µM)”. For LKDHRISTF [Sur14-22], the binding result with HLA-A1 (HLA-A*0101) is “no binding (tested: 40, 4, 0.4, 0.04 µM)”.

As to LKDHRISTY (Sur14-22 with Y at the C-terminus) [sur14Y9], in the assay with HLA-A1 (HLA-A*0101), the binding result is “no binding (tested: 40, 4, 0.4, 0.04 µM)”.

B7: Sur13K9 (peptide)
peptide: FLKDHRISTK
notes: Sur13-22 with the C-terminal F replaced by K
Consider B7, for which the binding result with HLA-A3 (HLA-A*0301) is recorded as “no binding (tested: 100, 10, 1, 0.1, 0.01 µM)”.

Regarding FLKLDRERA [Sur6 (Survivin101-109)], the C50 with HLA-A2 (HLA-A*0201) [1] came to 30 µM. For PTIRRKNLRK [SurEx3-A3-2], the binding result in the assay with HLA-A3 (HLA-A*0301) was “no binding (tested: 100, 10, 1, 0.1, 0.01 µM)”.

TAKKVRRAI [Sur7 (Survivin127-135)]: the binding result in the assay with HLA-A2 (HLA-A*0201) [1] was “no binding”.

With PTENEPDLAY (Sur47-56 with Q changed to Y at P10) [Sur47Y10], the C50 with HLA-A1 (HLA-A*0101) came to 0.4 µM. Consider PTENEPDLAQ (also called Survivin47-56) [Sur47-56], for which the binding result in the assay with HLA-A1 (HLA-A*0101) is listed as “no binding (tested: 40, 4, 0.4, 0.04 µM)”. Regarding CPTENEPDL [Sur46-54 (Survivin46-54)], the C50 with HLA-B35 turned out to be 20 µM.

Consider LAQCFFCFKEL [Sur54-64], for which the binding result with HLA-A2 (HLA-A*0201) [2] was “no binding (tested: 100, 10, 1, 0.1, 0.01 µM)”. In the case of KLDRERAKNK [Sur 103-112], the binding result with HLA-A3 (HLA-A*0301) is given as “no binding (tested: 100, 10, 1, 0.1, 0.01 µM)”; with HLA-A11 (HLA-A*1101), “no binding (tested: 40, 4, 0.4, 0.04 µM)”.

Turning to EPDLAQCFF [Sur51-59 (Survivin51-59)], in the assay with HLA-A1 (HLA-A*0101), the binding result is “no binding (tested: 40, 4, 0.4, 0.04 µM)”. The molecule also displayed a C50 in the assay with HLA-B35 of 13 µM. Regarding CAFLSVKKQF [Sur 84-93], the binding result in the assay with HLA-A3 (HLA-A*0301) is “no binding (tested: 100, 10, 1, 0.1, 0.01 µM)”; with HLA-A11 (HLA-A*1101), “no binding (tested: 40, 4, 0.4, 0.04 µM)”. With FLKLDRERAK [Sur 101-110], the binding result with HLA-A3 (HLA-A*0301) is given as “no binding (tested: 100, 10, 1, 0.1, 0.01 µM)”; in the assay with HLA-A11 (HLA-A*1101) it was “no binding (tested: 40, 4, 0.4, 0.04 µM)”. TLPPAWQPFL [Sur8 (Survivin5-14)] displayed a C50 with HLA-A2 (HLA-A*0201) [1] of 30 µM.

On to KLDRERAKNKI [Sur103-113], for which the binding result with HLA-A2 (HLA-A*0201) [2] is “no binding (tested: 100, 10, 1, 0.1, 0.01 µM)”. Take ETAKKVRRAI [Sur10 (Survivin126-135)]: in the assay with HLA-A2 (HLA-A*0201) [1], the binding result is listed as “no binding”. On to RAIEQLAAM [Sur2 (Survivin133-141)], for which the binding result in the assay with HLA-A2 (HLA-A*0201) [1] is on record as “no binding”. For PTLPPAWQPFL [Sur4-14], in the assay with HLA-A2 (HLA-A*0201) [2], the binding result was “no binding (tested: 100, 10, 1, 0.1, 0.01 µM)”. On to MAEAGFIHY (Sur38-46 with C changed to Y at P9) [Sur38Y9], for which the C50 in the assay with HLA-A1 (HLA-A*0101) is 0.8 µM.

MAEAGFIHC (also called Survivin38-46) [Sur38-46]: the binding result with HLA-A1 (HLA-A*0101) is listed as “no binding (tested: 40, 4, 0.4, 0.04 µM)”. Consider SVKKQFEEL [Sur5 (Survivin88-96)], for which the binding result with HLA-A2 (HLA-A*0201) [1] was “no binding”.

KIAKETNNKK [Sur 112-121]: the results for the C50 in the assay with HLA-A3 (HLA-A*0301) and with HLA-A11 (HLA-A*1101) were 1 µM and over 100 µM, respectively. As to RITREEHKK [Sur2b-A3-1], the binding result in the assay with HLA-A3 (HLA-A*0301) was “no binding (tested: 100, 10, 1, 0.1, 0.01 µM)”. QFEELTLGEF (also called Survivin92-101) [Sur92-101]: in the assay with HLA-A1 (HLA-A*0101), the C50 came to 2 µM. In the assay with HLA-A1 (HLA-A*0101), QSEELTLGEF (Sur92-101 with S at position 2) [Sur92S2] came in with a C50 of 100 µM.

Consider QTEELTLGEF (Sur92-101 with T at position 2) [Sur92T2], for which the C50 with HLA-A1 (HLA-A*0101) turned out to be 2 µM.

In the case of QFEELTLGEY (Sur92-101 with Y at the C-terminus) [sur92Y9], the binding result with HLA-A1 (HLA-A*0101) is reported as “no binding (tested: 40, 4, 0.4, 0.04 µM)”. Regarding TPERMAEAGF (also called sur34-46 (as printed once)) [Sur34-43 (Survivin34-43)], the binding result with HLA-A1 (HLA-A*0101) was “no binding (tested: 40, 4, 0.4, 0.04 µM)”. The C50 in the assay with HLA-B35 is over 100 µM. On to TPERMAEAGY (Sur34-43 with Y at the C-terminus) [sur34Y9], for which, in the assay with HLA-A1 (HLA-A*0101), the binding result is “no binding (tested: 40, 4, 0.4, 0.04 µM)”. TIRRKNLRK [SurEx3-A3-1] had a C50 with HLA-A3 (HLA-A*0301) of 0.5 µM.
